Laboratory results as given in PMC10765961 (2024).

Key:
Assay in all cases: microscale thermophoresis
[1] = target: T1, EPHA2ΔN intracellular region (Homo sapiens, UniProt P29317)
T1 chain: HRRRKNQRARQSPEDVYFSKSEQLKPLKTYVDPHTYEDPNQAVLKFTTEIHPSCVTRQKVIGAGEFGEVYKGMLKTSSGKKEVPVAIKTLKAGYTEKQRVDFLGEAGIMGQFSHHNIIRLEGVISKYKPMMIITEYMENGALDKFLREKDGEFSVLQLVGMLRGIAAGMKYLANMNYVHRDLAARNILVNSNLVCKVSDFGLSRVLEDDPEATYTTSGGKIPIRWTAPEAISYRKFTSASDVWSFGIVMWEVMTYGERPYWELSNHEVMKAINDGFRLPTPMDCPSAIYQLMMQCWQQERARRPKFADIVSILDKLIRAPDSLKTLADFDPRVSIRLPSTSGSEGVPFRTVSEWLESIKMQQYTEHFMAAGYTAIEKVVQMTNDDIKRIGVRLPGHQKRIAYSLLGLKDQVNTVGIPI

EPHA2 = EPHA2 (Homo sapiens, UniProt P29317)
EPHA2ΔC ECD = EPHA2ΔC ECD (Homo sapiens, UniProt P29317)
Sequence of EPHA2ΔC ECD (P29317 24-537, stated change not applied): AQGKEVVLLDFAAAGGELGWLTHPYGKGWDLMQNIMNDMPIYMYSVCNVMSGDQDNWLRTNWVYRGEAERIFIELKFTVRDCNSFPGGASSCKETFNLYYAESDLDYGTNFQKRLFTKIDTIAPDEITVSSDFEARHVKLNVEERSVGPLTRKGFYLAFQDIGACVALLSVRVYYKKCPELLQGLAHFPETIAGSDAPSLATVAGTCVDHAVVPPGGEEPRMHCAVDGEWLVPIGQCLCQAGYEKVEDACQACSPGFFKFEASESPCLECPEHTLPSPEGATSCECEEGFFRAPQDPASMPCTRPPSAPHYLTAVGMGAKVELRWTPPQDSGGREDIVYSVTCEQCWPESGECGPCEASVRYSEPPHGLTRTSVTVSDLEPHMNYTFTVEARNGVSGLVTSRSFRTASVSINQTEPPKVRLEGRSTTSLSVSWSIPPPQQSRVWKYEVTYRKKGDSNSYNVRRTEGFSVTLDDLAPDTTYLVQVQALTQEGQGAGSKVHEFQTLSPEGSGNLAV

Kd [1]: 125 nM
Kd (EPHA2): 150 nM
Kd (EPHA2ΔC ECD): 582 nM
B1: Claudin-1 (protein)
chain: MANAGLQLLGFILAFLGWIGAIVSTALPQWRIYSYAGDNIVTAQAMYEGLWMSCVSQSTGQIQCKVFDSLLNLSSTLQATRALMVVGILLGVIAIFVATVGMKCMKCLEDDEVQKMRMAVIGGAIFLLAGLAILVATAWYGNRIVQEFYDPMTPVNARYEFGQALFTGWAAASLCLLGGALLCCSCPRKTTSYPTPRPYPKPAPSSGKDYV
modifications: Cy3-labeled CLDN1
